The record followed here is IntAct's records for PubMed 9756887.

B1: Focal adhesion kinase 1 (Homo sapiens), Q05397 (parent)
chain: MAAAYLDPNLNHTPNSSTKTHLGTGMERSPGAMERVLKVFHYFESNSEPTTWASIIRHGDATDVRGIIQKIVDSHKVKHVACYGFRLSHLRSEEVHWLHVDMGVSSVREKYELAHPPEEWKYELRIRYLPKGFLNQFTEDKPTLNFFYQQVKSDYMLEIADQVDQEIALKLGCLEIRRSYWEMRGNALEKKSNYEVLEKDVGLKRFFPKSLLDSVKAKTLRKLIQQTFRQFANLNREESILKFFEILSPVYRFDKECFKCALGSSWIISVELAIGPEEGISYLTDKGCNPTHLADFTQVQTIQYSNSEDKDRKGMLQLKIAGAPEPLTVTAPSLTIAENMADLIDGYCRLVNGTSQSFIIRPQKEGERALPSIPKLANSEKQGMRTHAVSVSETDDYAEIIDEEDTYTMPSTRDYEIQRERIELGRCIGEGQFGDVHQGIYMSPENPALAVAIKTCKNCTSDSVREKFLQEALTMRQFDHPHIVKLIGVITENPVWIIMELCTLGELRSFLQVRKYSLDLASLILYAYQLSTALAYLESKRFVHRDIAARNVLVSSNDCVKLGDFGLSRYMEDSTYYKASKGKLPIKWMAPESINFRRFTSASDVWMFGVCMWEILMHGVKPFQGVKNNDVIGRIENGERLPMPPNCPPTLYSLMTKCWAYDPSRRPRFTELKAQLSTILEEEKAQQEERMRMESRRQATVSWDSGGSDEAPPKPSRPGYPSPRSSEGFYPSPQHMVQTNHYQVSGYPGSHGITAMAGSIYPGQASLLDQTDSWNHRPQEIAMWQPNVEDSTVLDLRGIGQVLPTHLMEERLIRQQQEMEEDQRWLEKEERFLKPDVRLSRGSIDREDGSLQGPIGNQHIYQPVGKPDPAAPPKKPPRPGAPGHLGSLASLSSPADSYNEGVKLQPQEISPPPTANLDRSNDKVYENVTGLVKAVIEMSSKIQPAPPEEYVPMVKEVGLALRTLLATVDETIPLLPASTHREIEMAQKLLNSDLGELINKMKLAQQYVMTSLQQEYKKQMLTAAHALAVDAKNLLDVIDQARLKMLGQTRPH

The variants in the assay “paxi_human PXN, P49023” derive from B1. Particulars: with paxi_human PXN.
The variants in assay [1] derive from B1. Particulars: with tgfi1_mouse Tgfb1i1, Q62219.
Chain of tgfi1_mouse Tgfb1i1, Q62219 (Q62219 whole entry): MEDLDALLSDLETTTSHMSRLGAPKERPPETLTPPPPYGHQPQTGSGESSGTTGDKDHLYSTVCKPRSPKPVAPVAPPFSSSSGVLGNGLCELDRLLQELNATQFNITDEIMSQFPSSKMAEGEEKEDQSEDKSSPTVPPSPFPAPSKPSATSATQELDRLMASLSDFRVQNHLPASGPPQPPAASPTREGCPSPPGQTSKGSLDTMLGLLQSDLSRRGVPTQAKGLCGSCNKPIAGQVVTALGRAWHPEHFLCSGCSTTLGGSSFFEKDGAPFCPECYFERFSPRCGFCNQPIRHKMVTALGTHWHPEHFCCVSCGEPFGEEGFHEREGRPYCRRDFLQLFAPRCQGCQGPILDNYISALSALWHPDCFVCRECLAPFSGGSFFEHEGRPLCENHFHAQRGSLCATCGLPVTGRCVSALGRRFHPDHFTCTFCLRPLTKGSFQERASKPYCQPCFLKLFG

Chain of paxi_human PXN, P49023 (P49023 whole entry): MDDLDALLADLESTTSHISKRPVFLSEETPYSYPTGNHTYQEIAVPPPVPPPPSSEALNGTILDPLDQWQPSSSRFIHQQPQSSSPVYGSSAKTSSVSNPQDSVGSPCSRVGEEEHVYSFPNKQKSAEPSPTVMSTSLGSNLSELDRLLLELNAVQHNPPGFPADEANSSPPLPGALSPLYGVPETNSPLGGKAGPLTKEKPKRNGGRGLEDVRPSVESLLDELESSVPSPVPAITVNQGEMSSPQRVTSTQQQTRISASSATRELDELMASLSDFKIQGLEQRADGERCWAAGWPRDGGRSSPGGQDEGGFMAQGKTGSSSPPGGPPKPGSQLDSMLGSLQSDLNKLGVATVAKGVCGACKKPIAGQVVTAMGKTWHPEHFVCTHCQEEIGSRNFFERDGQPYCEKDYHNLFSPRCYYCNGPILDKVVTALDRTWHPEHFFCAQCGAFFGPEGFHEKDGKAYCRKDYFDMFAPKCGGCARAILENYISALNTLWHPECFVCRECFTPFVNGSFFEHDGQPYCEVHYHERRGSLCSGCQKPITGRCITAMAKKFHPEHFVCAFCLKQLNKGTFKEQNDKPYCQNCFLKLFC

For L1034S, the “effect of a mutation on the interaction” value in the assay with paxi_human PXN, P49023 is reported as “disrupting interaction”; in assay [1] it was “disrupting interaction”.
With V928G, the “effect of a mutation on the interaction” value with paxi_human PXN, P49023 is given as “disrupting interaction”; in assay [1], “disrupting interaction”.
